Target: the molecule itself
Assay: crystal structure; SEP3 MI at 6 mg/ml, without DNA; 0.2 M potassium sodium tartrate, 0.1 M bis-tris propane pH 7.5, 20% PEG 3350, 4 °C; space group C222(1), dimers formed by crystallographic symmetry

B1: SEP3^MI (MADS-box and I domain of …3, residues 1-90) (domain or fragment)
chain: not shown
notes: His6-MBP fusion from the vector pETM41, cleaved with TEV protease; residues 1-18 and the 17 C-terminal residues are disordered in the crystal; also called SEP3 MI domain; source: E. coli BL21 Codon Plus, purified (Ni-NTA, heparin, TEV cleavage, Ni-NTA, heparin)
binding result: binds

Source: paper PMC8346517, “The intervening domain is required for DNA-binding and functional identity of plant MADS transcription factors” (Nature Communications, 2021)
